Data taken from US20070243569.

Key:
[1] = tested on: T1, non-phosphorylated pKID-Erk
T1 sequence: DKNADGWIDAASPA

[2] = tested on: T2, non-phosphorylated pKID-PKA
T2 sequence: DKNADGWIDRASLA

[3] = tested on: T3, non-phosphorylated pKID-PKC
T3 sequence: DKNADGWIDAASLK

Protein Kinase A (PKA)
extent of peptide phosphorylation by HPLC [1]: under identical conditions pKID-Erk (FIG. 9) and pKID-PKC (FIG. 10) showed no evidence of phosphorylation | extent of peptide phosphorylation by HPLC (conversion to phosphorylated peptide) [2]: pKID-PKA was enzymatically phosphorylated to >95% conversion in 12 hrs by PKA | phosphorylation in HeLa nuclear extract with added PKA after 3 h, conversion by HPLC [2]: Phosphorylation proceeded at 75% conversion as measured by HPLC | extent of peptide phosphorylation by HPLC [3]: under identical conditions pKID-Erk (FIG. 9) and pKID-PKC (FIG. 10) showed no evidence of phosphorylation
